Results reported in article doi:10.1101/2025.10.16.681972 (bioRxiv, 2025).

Target: recombinant soluble form (ectodomain) of human MERTK (Homo sapiens, UniProt Q12866)
Assay: SPR

Sequence of recombinant soluble form (ectodomain) of human MERTK (Q12866 21-505): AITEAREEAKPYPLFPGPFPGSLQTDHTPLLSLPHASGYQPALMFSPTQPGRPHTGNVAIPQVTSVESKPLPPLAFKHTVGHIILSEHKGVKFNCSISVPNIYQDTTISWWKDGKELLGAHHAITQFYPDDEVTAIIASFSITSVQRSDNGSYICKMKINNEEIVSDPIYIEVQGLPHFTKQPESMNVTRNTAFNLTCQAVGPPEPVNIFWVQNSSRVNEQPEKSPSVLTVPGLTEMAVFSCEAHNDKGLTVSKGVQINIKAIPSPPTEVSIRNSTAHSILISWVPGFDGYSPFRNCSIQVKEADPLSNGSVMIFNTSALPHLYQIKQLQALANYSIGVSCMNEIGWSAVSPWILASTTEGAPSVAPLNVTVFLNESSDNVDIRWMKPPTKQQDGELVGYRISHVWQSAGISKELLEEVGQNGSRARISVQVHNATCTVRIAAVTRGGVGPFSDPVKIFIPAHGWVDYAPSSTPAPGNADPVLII

B1: recombinant mAb745 (anti-MERTK, variable regions of mAb745 on human IgG1 and kappa constant regions) (antibody, V domains shown)
VH: DVQIQESGPGLVKSSQSLSLTCTVTGYSITNDYAWNWIRQFPGNKLEWMGYISYNGNTFYNPSLKSRISITRDTSKNQFFLQLSSVTTEDTATYYCGRLLPVSYAMDYWGQGTSVTVSS
VL: DVVMTQTPLSLPVSLGDQASISCRSSQSLVHSNGNTYLHWYLQKPGQSPKLLIYKVSNRFSGVPDRFSGSGSGTDFTLKISRVEAEDLGVYFCYQSTHVPWTFGGGTKLEIK
B1: binds.
